One substance from patent US20150079071 can be followed below.

Data set [1] has as its target heat-shock protein 90β (HSP90β), endogenous, in conditioned medium of SCp2 cells (UniProt P11499).
The test system of data set [2] is recombinant HSP90β (385903, Calbiochem/EMD Millipore).

Sequence of Flag-tagged full-length human MMP3 (FL) (chain, as listed by the source): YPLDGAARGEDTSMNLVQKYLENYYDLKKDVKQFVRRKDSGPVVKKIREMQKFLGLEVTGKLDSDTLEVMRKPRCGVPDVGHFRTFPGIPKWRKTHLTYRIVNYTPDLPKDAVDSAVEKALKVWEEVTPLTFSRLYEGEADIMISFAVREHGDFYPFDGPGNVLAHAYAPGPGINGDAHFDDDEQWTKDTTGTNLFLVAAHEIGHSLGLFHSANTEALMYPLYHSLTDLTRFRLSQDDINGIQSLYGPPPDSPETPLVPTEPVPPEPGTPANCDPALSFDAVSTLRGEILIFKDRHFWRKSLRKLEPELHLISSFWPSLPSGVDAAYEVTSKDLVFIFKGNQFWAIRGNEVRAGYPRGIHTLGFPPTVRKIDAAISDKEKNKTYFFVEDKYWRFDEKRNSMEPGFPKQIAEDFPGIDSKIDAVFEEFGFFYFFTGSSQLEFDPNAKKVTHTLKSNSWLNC
Sequence of heat-shock protein 90β (HSP90β), endogenous, in conditioned medium of SCp2 cells (P11499 2-724): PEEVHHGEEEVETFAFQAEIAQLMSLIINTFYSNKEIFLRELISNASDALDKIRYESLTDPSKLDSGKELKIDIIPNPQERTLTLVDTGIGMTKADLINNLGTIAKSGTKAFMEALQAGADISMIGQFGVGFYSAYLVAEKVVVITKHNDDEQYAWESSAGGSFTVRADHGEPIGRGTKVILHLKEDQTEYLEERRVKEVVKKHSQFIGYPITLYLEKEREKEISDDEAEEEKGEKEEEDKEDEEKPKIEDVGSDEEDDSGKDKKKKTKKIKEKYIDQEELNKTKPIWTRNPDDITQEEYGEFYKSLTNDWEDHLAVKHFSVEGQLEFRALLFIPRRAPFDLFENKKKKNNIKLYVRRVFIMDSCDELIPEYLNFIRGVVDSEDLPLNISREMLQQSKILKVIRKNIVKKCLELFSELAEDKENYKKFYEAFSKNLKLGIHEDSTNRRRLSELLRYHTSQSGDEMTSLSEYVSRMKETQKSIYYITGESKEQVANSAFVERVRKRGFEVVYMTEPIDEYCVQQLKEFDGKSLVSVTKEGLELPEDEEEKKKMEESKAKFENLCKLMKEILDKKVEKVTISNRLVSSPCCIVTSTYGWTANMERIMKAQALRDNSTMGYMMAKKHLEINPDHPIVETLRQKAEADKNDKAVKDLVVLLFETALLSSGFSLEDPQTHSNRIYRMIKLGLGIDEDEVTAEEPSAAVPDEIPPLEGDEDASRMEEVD

As for Flag-tagged full-length human MMP3 (FL), the “invasion and branching (spatial network) of mammary organoids in 3D Col-1 gels with a function-blocking antibody against HSP90β” value in data set [1] is on record as “blocking the extracellular HSP90β with inhibitory antibodies added to the medium abolished branching ability in all organoids, including controls”. Besides, the “invasion and branching (spatial network) of mammary organoids in 3D Col-1 gels with recombinant HSP90β” value in data set [2] is “The recombinant HSP90β added extracellularly enabled the secreted MMP3 to induce the most exuberant branched structures”.
